In PMC6464244, “The fungal ribonuclease-like effector protein CSEP0064/BEC1054 represses plant immunity and interferes with degradation of host ribosomal RNA”:

Tests used:
CSEP0064/BEC1054 [1] = biological target: T1, CSEP0064/BEC1054 (Blumeria graminis, UniProt N1JJ94 22-118); assay: NMR 1H-15N HSQC titration; 8 mole equivalents; discrete CSPs, weak; settings: protein: recombinant; tags: Trx-His6 removed by TEV; NT-647 NHS amine label for MST; 15N for NMR; hairpin (SRL fold)
T1 sequence: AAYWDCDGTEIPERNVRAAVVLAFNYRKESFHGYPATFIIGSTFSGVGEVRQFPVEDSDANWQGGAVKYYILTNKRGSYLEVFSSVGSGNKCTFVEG

CSEP0064/BEC1054 [2] = biological target: T1, CSEP0064/BEC1054; assay: NMR 1H-15N HSQC titration; fast exchange; small CSPs, saturation at ~50 molar equivalents; binding observed; settings: protein: recombinant; tags: Trx-His6 removed by TEV; NT-647 NHS amine label for MST; 15N for NMR; hairpin (predicted same fold as SRL RNA)
CSEP0064/BEC1054 [3] = biological target: T1, CSEP0064/BEC1054; assay: MST; up to 1 mM; no curve could be fitted; MST: 20 mM Tris pH 7.4, 150 mM NaCl, 0.05% Tween, 50 nM labelled protein; NMR: 50 uM protein, 50 mM Tris, 150 mM NaCl, 308 K; settings: protein: recombinant; tags: Trx-His6 removed by TEV; NT-647 NHS amine label for MST; 15N for NMR; single strand

B1: SRL RNA (barley 28S rRNA sarcin-ricin loop) (structured_RNA)
RNA: ACCUGCUCAGUACGAGAGGAACCGCAGGU
- binding result (CSEP0064/BEC1054 [1]): binds

B2: SRL DNA oligonucleotide (structured_DNA)
DNA: ACCTGCTCAGTACGAGAGGAACCGCAGGT
modifications: DNA version of SRL RNA
- Kd (CSEP0064/BEC1054 [2]): > 10 µM

B3: bacteriophage T7 promoter RNA (non-rRNA control) (ssRNA)
RNA: AAUUUAAUACGACUCACUAUAGG
- binding result (CSEP0064/BEC1054 [3]): no binding
